Assay results reported in patent US20110206671A1, “AXON REGENERATION PROMOTER” (priority 2004, published 2011).

B1: RGM-like protein: rat protein homologous to chicken repulsive guidance molecule, released from RGM-CHO cells by PI-PLC; SEQ ID NO: 4 (protein, listed as Rattus norvegicus)
chain: MGRGAGRSALGLWPTLAFLLCSFPAAISPCKILKCNSEFWSATSSGSHAPASDDVPEFCAALRTYALCTRRTARTCRGDLAYHSAVHGIEDLMSQHNCSKDGPTSQPRVRTLPPAGDSQERSDSPEICHYEKSFHKHSAAPNYTHCGLFGDPHLRTFTDHFQTCKVQGAWPLIDNNYLNVQVTNTPVLPGSAATATSKLTIIFKNFQECVDQKVYQAEMDELPSAFADGSKNGGDKHGANSLKITEKVSGQHVEIQAKYIGTTIVVRQVGRYLTFAVRMPEEVVNAVEDRDSQGLYLCLRGCPLNQQIDFQAFRANAESPRRPAAASPSPVVPETFPYETAVAKCKEKLPVEDLYYQACVFDLLTTGDVNFTLAAYYALEDGKMLHSNKDKLHLFERTRELPGAVAAAAFPLAPEMLPGTVTLLVLLPLFW

Key:
[1] = system: cerebellar granule neurons on rat RGM-like protein-expressing CHO cells; experiment: Axon growth assay, coculture of cerebellar granule neurons on RGM-CHO cells; type: cell-based; conditions: 10 μM Y27632 added, 24 hours, compared with control CHO cells
Method: Cerebellar granule cells from rat pups at 8 days post-natal (P8) were dissociated by trypsinization (0.25% trypsin in PBS, 37° C., 15 minutes); resuspended in serum-containing medium; triturated; and washed three times with PBS. For the coculture assay, neurons were plated onto a confluent monolayer of RGM-CHO cells or control CHO cells in chamber slides. 10 μM Y27632 (Welfide Corporation, Osaka) was added to the cultures to inhibit ROCK (Rho kinase). The cultures were grown for 24 hours in serum-free DMEM/F12 medium.
(§1) For the soluble RGM assay, confluent monolayers of RGM-CHO cells or control CHO cells were incubated in serum-free DMEM/F12 with or without 2.5 U/mL PI-PLC (phosphatidylinositol-specific phospholipase C, Sigma). After the culture were centrifuged for 10 minutes at 13000 g, floating cells were removed by collecting the supernatant. A portion of the supernatant was subjected to Western blot analysis. Neurons were plated on the conditioned media on poly-L-lysine-coated chamber slides and were incubated for 12 or 24 hours. For the axon assay, the cells were fixed with 4% (w/v) paraformaldehyde and immunostained with a monoclonal antibody that recognizes β-tubulin III protein specifically present in neurons (TuJ1, 1:1000, Covance Research Products, Inc., Denver, USA). The length of the longest neurite for each β-tubulin III-positive neuron was then measured.

[2] = system: cerebellar granule neurons; experiment: Soluble RGM axon growth assay with conditioned media; type: cell-based, rat; conditions: medium obtained by PI-PLC treatment of RGM-like protein-expressing CHO cells; versus control CHO medium
Method: as §1

[3] = system: RhoA; experiment: Affinity precipitation of GTP-RhoA; type: cell-based, rat; conditions: cerebellar neurons from 7-day postnatal rats; 30 minutes after conditioned medium
Method: Cells were lysed in 50 mM Tris (pH 7.5) containing 1% Triton X-100 (TM), 0.5% sodium deoxycholate, 0.1% SDS, 500 mM NaCl, 10 mM MgCl2, 10 μg/mL leupeptin, and 10 μg/mL aprotinin.
The cell lysate was cleared by centrifugation at 4° C. for 10 minutes×13000 g, and the supernatant was incubated for 45 minutes at 4° C. with 20 μg GST-Rho binding domain of Rhotekin beads (TM, Upstate Biotech). The beads were washed four times with washing buffer (50 mM Tris (pH 7.5) containing 1% Triton X-100 (TM), 150 mM NaCl, 10 mM MgCl2, and 10 μg/mL each of leupeptin and aprotinin). Bound Rho was detected by Western blotting using monoclonal antibody against RhoA (Santa Cruz Biotech, Santa Cruz, Calif., USA).
The RhoA activity in neurons was measured. Conditioned medium was added to cerebellar neurons from 7-day postnatal rats and the RhoA activity was measured after 30 minutes had elapsed (FIG. 6).

| Molecule | axon growth (average length of the longest axon of each neuron) [1] | axon growth of neurons treated with conditioned medium [2] | RhoA activity in neurons (GTP-RhoA) [3] |
| --- | --- | --- | --- |
| CC(N)[C@H]1CC[C@H](C(=O)Nc2ccncc2)CC1 (stereo partly drawn) [Y27632] | axon growth was about the same as for the control |  |  |
| B1 |  | significantly inhibited | Rho activation was confirmed |
